Our source for the ratio β-galactosidase activity tested strain/R721 and β-galactosidase activity values is article PMC4595432.

The target in the test is DnaA fused to the N-terminal domain of the phage 434 repressor (pcI434-dnaA) (E. coli K12) (UniProt P03004). Briefly: two-hybrid; bacterial two-hybrid system in E. coli R721 (434-P22 chimeric operator upstream of lacZ); fusions to the N-terminal domains of the 434 and P22 repressors; β-galactosidase in Miller units, cultures at A600 0.5 in LB with 0.1 mM IPTG; an interaction lowers the activity and is scored positive when the ratio to R721 is below 0.5.

For “HtpG fused to the N-terminal domain of the phage P22 repressor (pcIP22-htpG) (from UniProt P0A6Z3 1-624) (natural protein)”, the ratio β-galactosidase activity tested strain/R721 amounted to 0.19 and the β-galactosidase activity is 1070 Miller units.
